Data taken from patent US20130302353A1 (published 2013).

T1: IRSMPSHPDRA (SEQ ID NO:33) (human)
T1 construct: the peptides on the cards were longer and mostly CLIPS-constrained
T1 peptide: IRSMPSHPDRA

T2: FLAG-hAPRIL captured by BCMA-Fc (human, UniProt O75888 110-250; Q02223 1-54, limits assumed)
T2 construct: also called APRIL-BCMA complex; receptor-ligand complex; not shown: FLAG tag; Fc of human IgG1
T2 sequence (looked up) 1: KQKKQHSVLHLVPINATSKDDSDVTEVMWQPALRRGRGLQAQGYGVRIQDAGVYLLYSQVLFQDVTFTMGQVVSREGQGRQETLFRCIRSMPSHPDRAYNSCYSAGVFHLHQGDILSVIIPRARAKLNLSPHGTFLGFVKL
T2 sequence (looked up) 2: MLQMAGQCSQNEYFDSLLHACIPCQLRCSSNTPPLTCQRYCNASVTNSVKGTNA

T3: VSREGQGRQ (SEQ ID NO:38) motif (human)
T3 construct: the peptides on the cards were longer and mostly CLIPS-constrained; also called core region EGQ
T3 peptide: VSREGQGRQ


Key:
[1] = target: T1, IRSMPSHPDRA (SEQ ID NO:33); test: Pepscan ELISA on linear and CLIPS peptides
Method: (§1) The synthetic linear and CLIPS peptides were synthesized and screened using credit-card format mini PEPSCAN cards (455-well plate with 3 ul wells) as described by Slootstra et al. (Slootstra et al., 1996, Mol. Diversity. 1, 87-96) and Timmerman et al. (Timmerman et al., 2007, J. Mol. Recognit. 20, 283-299). The binding of antibodies (hAPRIL.01A and hAPRIL.03A) to each peptide was tested in a PEPSCAN-based enzyme-linked immuno assay (ELISA). The 455-well creditcard-format polypropylene cards, containing the covalently linked peptides, were incubated with sample (for example 1 ug/ml antibody diluted in a PBS solution containing 5% horse serum (vol/vol) and 5% ovalbumin (weight/vol)) and 1% Tween 80 (4° C., overnight). After washing the peptides were incubated with an anti-antibody peroxidase (dilution 1/1000, for example rabbit anti-mouse peroxidase, Southern Biotech) (1 hour, 25° C.), and subsequently, after washing the peroxidase substrate 2,2′-azino-di-3-ethylbenzthiazoline sulfonate (ABTS) and […] 3% H2O2 were added. After 1 hour the color development was measured. The color development of the ELISA was quantified with a CCD-camera and an image processing system. […]
(§2) Each antibody was tested on all 4225 peptides and their binding values were ranked. […] For hAPRIL.01A it was determined that it binds to […] […]

[2] = target: T2, FLAG-hAPRIL captured by BCMA-Fc; test: ELISA, FLAG-hAPRIL captured by coated BCMA-Fc
Method: Protein-based ELISA experiments using purified hAPRIL.01A and hAPRIL.03A antibodies were performed to determine apparent binding affinities (reported as EC₅₀ values). Binding was compared to mouse anti-hAPRIL IgG1 Aprily-5 (Alexis). Maxisorp 96-well immunoplates (Nunc) were coated with either rabbit anti-FLAG polyclonal antibody (Sigma) or BCMA-Fc (R&D Systems) at 50 ng/well in PBS overnight at 4° C. and blocked with 10% Goat serum/PBST for 1 hour at RT. Plates were washed with PBST 3 times and incubated with supernatant (1:4 in PBS) containing FLAG-hAPRIL for 1 hour at RT. Plates were again washed with PBST 3 times and incubated with hAPRIL.01A, hAPRIL.03A, and Aprily-5 antibodies (10 μg/ml high test with 10-fold dilutions in triplicates) for 1 h at RT. After three washes with PBST, bound antibodies were detected with goat anti-mouse IgG-HRP (1:2,000) (Southern Biotechnology) for 1 hour at RT. Plate was washed three times with PBST, and APRIL-reactivity was visualized with OptiEIA TMB substrate (Becton Dickinson). The concentration for half-maximal binding is reported as a measure of relative binding affinity. When FLAG-hAPRIL was captured by the anti-FLAG antibody (FIG. 2A), EC₅₀ values for hAPRIL.01A, hAPRIL.03A and Aprily-5 were calculated as 2.2, 1.4, and 1.7 nM, respectively. […] In contrast, binding of hAPRIL.03A to the APRIL-BCMA complex was observed.

[3] = target: T3, VSREGQGRQ (SEQ ID NO:38) motif; test: Pepscan ELISA on linear and CLIPS peptides
Method: as §1, §2

Binder | binding result [1] | binding result [2] | binding result [3]
hAPRIL.01A (antibody, IgG1, V domains shown, Mouse antibody from a hybridoma; also called hAPRIL.01A hybridoma supernatant; purified hAPRIL.01A) VH: EVQLQQSGPELVKPGASVKMSCKASGYTFTSYVMHWVKQKPGQGLEWIGYINPYNDAPKYNEKFKGKATVTSDKSSGTAYMELSSLTSEDSAVYYCARGLGYALYYAMDYWGQGTSVTVSS VL: DIVMTQSQKFKSTSVGDRVSVTCKASQNVGNNVAWYQQKAGQSPKALISSASNRDSGVPDRFTGSGSGTDFTLTISNVQSEDLADYFCQQYNIYPFTFGSGTELEIK | binds | no binding (tested: 10 µg/ml high test) | 
hAPRIL.03A (antibody, IgG1, V domains shown, Mouse antibody from a hybridoma; also called hAPRIL.03A hybridoma supernatant; purified hAPRIL.03A) VH: QVTLKESGPGILQPSQTLSLTCSFSGFSLSTYGIGVGWIRQPSGKGLEWLAHIWWNDNKYYNTALKSRLTISKDTSNNQVFLKIASVDTADTATYYCARIAGGNYDYAMDHWGQGTSVTVSS VL: QIVLTQSPAIMSTSPGEKVTLTCSASSSVSSTYLYWYQQKPGSSPKLWIYSTSNLASGVPARFSGSGSGTSYSLTISSMEAEDAASYFCHQWSSYPPTFGAGTKLELK |  |  | binds
